Assay results: the nanobody polyreactivity screen of Harvey et al. (2022)

Experiment: yeast display, Sf9 membrane polyspecificity reagent, FACS + sequencing; frameworks hold sequencing errors
Summary of the method: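 After 36–48 hours of galactose induction, yeast (Saccharomyces cerevisiae BJ5465) displaying a synthetic nanobody library were stained at 4 °C for 1 hour with 10% biotinylated, detergent-solubilized Sf9 membrane reagent. Streptavidin microbeads enriched the stained cells before FACS sorting into low and high (top ~1%) gates on anti-HA and streptavidin fluorescence. Each clone's polyreactivity label reflects its gate of origin.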

Row | Sequence | polyreactivity (PSR sort gate)
1 | QVQLVESGGGLVQAGGSLRLSCAASGRIFDQNAMGWYRQAPGKERELVAAITWSGGSTNYADSVKGRFTISRDNAKNTVYLQMNSLKPEDTAVYYCATDGKPSFYSFDYWGQGTQVTVSS | low polyreactivity
2 | QVQLVESGGGLVQARGSLRLSCAASGSIFFPYAMGWYRQAPGKERELVAAIRYSAGSTYYADSVKGRFTISRDNAKNTVYLQMNSLKPEDTAVYYCNAGSSCWVSRIGYDYWGEGTQVTVSS | high polyreactivity
3 | QVKLVESGGGLVQAGGSLRLSCAASGSIFALYAMGWYRQAPGKEREFVARISWGGGRTYYADSVKGRFTISRDNAQNTVYLQMNSLKPEDTAVYYCNAERAGTYSYDYWGQGTQVTVSS | high polyreactivity
4 | QVQLLETGGGLVQAGGSLRLSCAASGIPFDIYTMGWYIQAPGKERELVAASSYSGGTTYYADSVKGRFTISRDNAKNTVYLQMISLKPEDTAVYYCAAYEGTYFTEVDYWGQGTQVTVSS | low polyreactivity
5 | QVQLVESGGGLVQAGGSLRLSCAASGLTVVIYAMGWYRKAPGKERELVARITCSGGSTYYADSVKGRFTISRDNAKNTVYLQMISLQPEVTAVYYCAARRFYYYNAVYDYWGQGTQVTVSS | low polyreactivity
6 | QVQLVESGVGLVQAGGSLRLSCAASGSTFDVYDMGWYRQAPGKERELVASISWDGDRTYYADSVKGRFTISRDNAKNTVYLQMKSLKPEDTAVYYCAATLRPYSSFPNRYGYWGQGTQVSVSS | low polyreactivity
7 | QVQLVESGGGLVQAGGSLRLSCAASGSIFVKNAMGWYIHAPGKERELVATISRRGGSTYYADSVKGRFTISRDIAKNTVYLQMNSMKPEDTAVYYCAADRSNRPYYRQGYDYWGQGTQVTVSS | high polyreactivity
8 | QVQLVESGGGLVQAGGSLRLSCAASGGTFYNYAMGWYRQAPGKERELVAAISTSGTSTYYADSVKGRFTISRDNAKNTVYLQMNSLKPEDTAVYYCAARGLRVSSRGYYWGQGTQVTVSS | high polyreactivity
9 | QVQLVESGGGLVQAGGSLRLSCAASGSTFAFNTKGWYRQAPGKERELVAGISSNGGRTYYADSVKGRFTISRDNAKNTVYLQMNSLKPEDTAVYYCNALRRYVSVRPTKSDDWGQGTQVTVSS | high polyreactivity
10 | QVQLVESGGGLVQAGGSLRLTSAASGRIFGYYAMGWYRQAPGKERDLVAAIRYSSGRTYYADSVKGRFTISRDNAKNIVYLQMNSLKPEDTAVYYGNAGYLFLRSYPHDYWGQGTQVTVSS | high polyreactivity
11 | QVQLVESGGGLVQAGGSLRLSCAASGGIIGHYDMGWYRQAPGKERELVAAIIGGGSTNYADSVKGRFTISRDNAKNTVYLQMNSLKPEDTAVYYCNVAHGTQGWWGRNDYWGQGTQVTVSS | low polyreactivity
12 | QVQLVESGGGLVQAGGSLRLSCAASGRIFPPYDMGWYRQAPGKETELVAAISYRGGSTYYADSVKGRFTISRDNAKNTVYLQMNSLKPEVTAVYYCNVGSRGGWDASDYDYWGQCTQVTVSS | high polyreactivity
13 | QVQLVESAGGLVQEGGRLRLSCAASGITLGAYAMGRYRQAPGKEREMVARIRIGGSKYYADSVKGRFTISRDNEKNTVYLQMNSLKPEDTAVYYCATRWQEYAGDYWGDYWGQGTHVTVSS | low polyreactivity
14 | QVQLVASGGGLVQAGGSLRLSCAASGGTLDYYVMGWYRQAPGKERELVAAISTNGGSTNYADSVKGRFTISRDNAKNTVYLQMNSLKPEDTAVYYCAATSDVYVFLEFDYWGQGTQVTVSS | low polyreactivity
15 | QVQLVESGRGLVQAGGSLRLTCAASGSTFTANDMGGSRPATGTERELFADISSGDGTNYADSVKGRFTISRDNAKNTVYLQMISLKPEDTAVYYCAKDVYNFRTTHSYFTGYDSWGHGTQVTVSS | low polyreactivity
16 | QVQLVESGGGLVQAGGSLLLSSAASGRTFSINAMGWYRQAHGKERELVAAITWSGGSTYYADSVKGRFTISRDNAKNTVYLQMNSLKPEDTAVYYCNAGLGKFPVKGGRRYRLDYSGQGTQVTVSS | low polyreactivity
17 | QVQLVESVGGLVQAGGSLRLSCAASGFIFYRYAMGWYRKAPGKEWEFVAAINYSATSTYYADSVKGRFTISRDNAKNTVYLQMNSLKPEDTAVYYCAAKRVRRLSYETKYDYWGQGTQVTVSS | high polyreactivity
18 | QVQLVESGGGLVQAGGSLRLSCAASGSIFTWYAMGWYRQAPGKERELVAAITRGGSTYADSVKGRFTISRDNAKNTVYLQMNSLKPEDTAVYYCNAVYGVYDFNYWGQGTQVTVSS | low polyreactivity
19 | QVQLVESGGGLVQAGGSLRLSCAASGSTFQYYAMGWSRQAPGKERELVAAISYGGSRTYYADSVKGRFTISRDNAKNTVYLQMNSLKPEDTAVYYCAKEKYRALAPYYYWGQGTQVTVSS | high polyreactivity
20 | QVQLVESGGRLVHAGGSLRLSCAASGSTFERNLMGWYSEAPGKERELVAAISRVSSTNYADSVKGRFTISRDNAKNTVYLQMNSVKPEDTAVYSCAADRAGSIMNYWGQGTQVTVSS | low polyreactivity
21 | QVQLQESGGGLVQAGGSLRLSCAASGTISDSGLMGWYRQAPGKERELVAGISSGGITNYADSVKGRFTISRDNAKNTVYMQMNSLKPEDTAVYWGQGSQVTVSS | low polyreactivity
22 | QVQLVESGGGLVQAGGSLRLSCAASGFIFVDYAMGWYRQAPGTERELVAAITSSGDRTYYADSVKGRFTISRDNAKNTVYLQMNSLKPEDTAVYYCNADWSTAWYTSYDYWGQGTQVTVSS | low polyreactivity

Row | Sequence | polyreactivity (PSR sort gate)
23 | QVQLVESGGGLVQAGGSLRLSCAASGRTSGVYSMGWYRQAPGKERELVAAISRSGDSTYYADSVKGRFTISRDNAKNTVYLQMNSLKPEDTAVYYCATTFKRSMYWGQGTQVTVSS | high polyreactivity
24 | QVQLVESGGGLVQAGGSLRLSCAASGSIFRWYAMGWYRQAPGKERELVAAISYSGGSTYYADSVKGRFTISRDNAKNTVYLQMNSLKPEDTAVYYCARLGWKPITAARDYWGQVTQVTVSS | high polyreactivity
25 | QVQLVESGGGLVQAGGSLRLSCAASGRIFQWNAMGWYRQAPGKERELVATISSRGGSTYYADSVKGRFTISRDNANNTVYLQMNSLKPEDTAVYYCAARYYAKYRSYDYWGLGTQVTVSS | high polyreactivity
26 | QVQLVESGGGLVQAGGSLRLTCAASGSTFRYYDMGWYRQAPGKERELVAAITTSGDDTYYADSVKRRFTISRDNAKNSVYLPMNSLKPEDTAVYYCAADGYGGHKYELESWGQGTQVTVSS | low polyreactivity
27 | QVQLVESWGGVVQAGGSLRISCAASGFILARYAMGWYRQAPGKERELVAAIRRSGGGTYYADSVKGRFTISRDNAKYTVYLLMKSLKPEDTAVYYCNRDPTYLAYYINYDSWGQGTQVTVSS | high polyreactivity
28 | QVQLVESGGGLVQAGGSLRLSCAASGRIFAYYAMGWYRQAPGKERELVAAITSRGGRTYYADSVKGRFTISRDNAKNTVYLQMNSLKPEDTAVYYCAAKGRPDGKYDYWGQGTQVTVSS | high polyreactivity
29 | QVQLVESGGGLVQAGGSLRLSCAASGSYTMGWYRQAPGKERELVAAISKSCGSTYYADSVKGRFTISRDNAKNTVYLQMNSLKPDDTAVYYCAAVGWWGTYDYWGQGTQVTVSS | high polyreactivity
30 | QVQLVESGGGLVQAGGSLRLSCAASGGTFNSNAMGWYRQAPGKERELVASITWRGGTYYADSVKGRFTISRDNAKNTVYLQMNSLKPEDTAVYYCAARGTIPGIHWIYYYWGQGTQVTVSS | high polyreactivity
31 | QVQLVESGGGLVQAGGSLRLSCAASGSIFGLNAMGWYRQAPGKERELVAASSVSGTRTYYADSVKGRFTISRDNAKNTGYVQMNSLKPEDTAVYYCATRRYIFYSPYRYGYWGQGTHVTVSS | high polyreactivity
32 | QVQLVESGGGLVQAGGSLRLSCAASGFIFGYNAMVWYRQAPGKERELVARINSGGNTNYADSVKGRFTISRDNAKNTVYLQMNSLKPDDTAVYYCARDASNRYDYWGQGTLVTVSS | low polyreactivity
33 | QVQLVESGGGLVQAGGSLRLSCAATGMIYERNAMGWYRQAPGKERELVAAITRSGSRTYYADSVKGRFTISRDNAKNTVYLQMNSLKPEDTAVYYCAKRSGYRAHYGYWGQGTQVTVSS | high polyreactivity
34 | QVQLVESGGGLVQAGGSLRLSCAASGYTFVIYAMGWYRQAPGKERELVAAITTIGGRTYYADSVKGRFTISRDNAKNTVYLQMNSLKPEDTAVYYCAADIRSNRLYDGGYWGQGTQVTVSS | low polyreactivity
35 | QDQLVESGGGFVQAGGSRRLSCAASGRTLAYNAMGWYRPAPGKEWEFVAAITYSGGSTYYADSVKGRFTISRDNAKNTVYLQMYSLKPEDTAVYYCNAKRKRGYGSKFDYWGQGTQVTVSS | high polyreactivity
36 | QVQLVESGGGLVHAGGSLRLSCAASGNTFWPYAMGWYRQAPGKERELVAAINYSGTRTYYSDSVKGRFTISRDNAKNTVYLQMNSLKPEDTAVYYCAKATSPPGTTAGGYDYWGQGTQVTVSS | low polyreactivity
37 | QVQLVESGGGLVQAGGSLRLSCAASGFIFRYYAMGWYRQAPGKERELVAAIRRGGSTYYADSVKGRFTISRDNAKNTVYLQMNSLKPEDTAVYYCAASFWGIAMGYWGQGTQVTVSS | high polyreactivity
38 | QVQLVESGGGLVQAGGSLRLSCAASGRIFITYAMGWYRPAPGTERELVAAIDSRGGSTYYADSVKGRFTISRDNAKNTDYLQMNSLKPEDTSVNYCAAEFYYIWLYEYWGQGTQVTVSS | high polyreactivity
39 | QVQLVESGGGLVQAGGSLRLSCAASGRTFSTNAMGWYRQAPGKERELVAAITASGGSTYYADSVKGRFTISRDNAKNTVYLQMNSLKPEDTAVYYCAKRYRAYHYGWWYDYWGQGTQVTVSS | high polyreactivity
40 | QVQLVESGGGLVQAGGSLSLSCAASGSISDVYAMGGYRQAPGKERELVAAITSGASTYYADSVKGRFTISRDNAKNTVYLQMNSLKPEDTAVYYCAAGYSDWYYAAYNSWGQGTQVTVST | low polyreactivity
41 | QVQLVESGGGLVQAGGSLRLSCAASGRNFGSYAMGWYRQAPGKERELVAAITSGGSTYYADSVKGRFTISRDNAKNTVYLQMNSLKPEDTAVYYCAARQVRTSKLHMGYWGQGTQVTVSS | low polyreactivity
42 | QVQLVDSGGGLVQAGGSLRVSCAASGNTFVTNAMGWSRQAPGKERELDAAITASVTSTYYADSVKGRFTISRDNAKITVYLQLNSLKPEDPAVYYCAAKTYSRKRVRMDYWGQGTQVTVSS | high polyreactivity
43 | QVQLVESGGGLVQAGRSLRLSCAASGFIYPYNALGWYRQAPGKERELVAGITWRGASTYYADSVKGRFTISRDNAKNSVYLQMNRLKPEDTAVDYCAAAYRRVTTKTFKLDYWGQGTQVTVSS | high polyreactivity
